Experiment [1] deals with soluble PD-L1 (UniProt Q9NZQ7). In words: cell binding (H9 cells); printed as pg/ul.
Experiment [2] addresses T1, soluble PD-L1 (UniProt Q9NZQ7 19-238, limits assumed).
T1 construct: also called PD1-L1
In words: competitive binding assay: mixed H9 cells expressing PD1(WT):CD28 (cell trace violet positive) and PD1(A99L):CD28 (negative), incubated with soluble PD-L1 (0.02 pg/uL to 20 ng/ul) for 30 min, streptavidin-APC, flow cytometry. The protocol: A competitive binding assay was performed to determine relative binding affinity between PD1 chimeric polypeptides, in particular PD1(WT):CD28 polypeptide, and the PD1(A99L):CD28 polypeptide.
A population of H9 cells containing PD1(WT):CD28 polypeptide were labeled with cell trace violet were mixed with a population of H9 cells containing PD1(A99L):CD28 polypeptide. The cells were then incubated with soluble PD-L1 (0.02 pg/uL to 20 ng/ul) for 30 min and then stained with streptavidin-APC. The two populations were separated out by flow analysis into cell trace violet positive (H9 cells containing PD1(WT):CD28 polypeptide) and cell trace violet negative (H9 cells containing PD1(A99L):CD28 polypeptide) populations. The populations were analyzed for APC positivity.
On the technique in general: In flow cytometry, cells or beads pass a laser one at a time.

Chain of soluble PD-L1 (UniProt Q9NZQ7) (Q9NZQ7 19-238): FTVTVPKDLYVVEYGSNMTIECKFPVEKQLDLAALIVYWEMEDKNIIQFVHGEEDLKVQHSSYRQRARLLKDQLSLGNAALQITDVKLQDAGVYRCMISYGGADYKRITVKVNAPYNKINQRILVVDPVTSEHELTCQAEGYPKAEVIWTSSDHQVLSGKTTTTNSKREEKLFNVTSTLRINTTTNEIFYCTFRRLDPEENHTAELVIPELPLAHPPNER
T1 sequence (Q9NZQ7 19-238 limits assumed): as the sequence (Q9NZQ7 19-238) above

In general, Kd refers to a measure of binding affinity in units of concentration. A low value points to higher affinity. As for PD1(WT):CD28 polypeptide, in the experiment with soluble PD-L1 [1], the Kd came out at 0.029 µg/mL.
On to PD1(A99L):CD28 polypeptide, for which the Kd with soluble PD-L1 [1] came out at 0.0033 µg/mL.

B1: PD1(A99L):CD28 polypeptide (receptor)
chain: LDSPDRPWNPPTFSPALLVVTEGDNATFTCSFSNTSESFVLNWYRMSPSNQTDKLAAFPEDRSQPGQDCRFRVTQLPNGRDFHMSVVRARRNDSGTYLCGAISLAPKLQIKESLRAELRVTERRAEVPTAHCPSPLFPGPSKPFWVLVVVGGVLACYSLLVTVAFIIFWVRSKRSRLLHSDYMNMTPRRPGPTRKHYQPYAPPRDFAAYRS
notes: Position 99 is not counted from the initiating Met of the encoded open reading frame, where the changed alanine appears to lie near position 132
Consider B1, for which the “fold binding affinity relative to PD1(WT):CD28 polypeptide” value with soluble PD-L1 [2] was roughly 9 fold.

These data come from patent US20230374104A1 (SEATTLE CHILDREN S HOSPITAL DBA SEATTLE CHILDREN S RESEARCH …, published 2023).
